Data as given in paper PMC7585440, “Sclerostin inhibits Wnt signaling through tandem interaction with two LRP6 ectodomains” (Nature Communications, 2020).
Changes are numbered by the printed parent chain. Numbers in names are those of the source. Bridges are numbered along the chain shown (N, C = ends). Where no end group is shown, it is not given here.

How the values were obtained:
Conditions in all cases: both partners purified
[1] = target: T1, human LRP6 E1 (P21-D325) with a C-terminal His tag (human, UniProt O75581 21-325, labeled with the dye NT-647 in the MST experiments (legends: Cy-5 dye-labeled)); test: MST; labeled LRP6 E1E2 or LRP6 E1 (~5 nM) titrated with unlabeled Smo-SOST, MBP-SOST, tags or peptides; 20 mM Tris-Cl pH 7.0, 200 mM NaCl, 0.5 mg/ml BSA, 0.05% Tween 20; 22 °C; three independent experiments
T1 construct: low-density lipoprotein receptor-related protein 6 (LRP6), human, ectodomain E1, residues P21-D325; The methods name a 10x His tag; also called LPR6 E1; source: High Five insect cells, secreted, purified (Ni-NTA, HiTrapQ, SEC)
T1 sequence (looked up): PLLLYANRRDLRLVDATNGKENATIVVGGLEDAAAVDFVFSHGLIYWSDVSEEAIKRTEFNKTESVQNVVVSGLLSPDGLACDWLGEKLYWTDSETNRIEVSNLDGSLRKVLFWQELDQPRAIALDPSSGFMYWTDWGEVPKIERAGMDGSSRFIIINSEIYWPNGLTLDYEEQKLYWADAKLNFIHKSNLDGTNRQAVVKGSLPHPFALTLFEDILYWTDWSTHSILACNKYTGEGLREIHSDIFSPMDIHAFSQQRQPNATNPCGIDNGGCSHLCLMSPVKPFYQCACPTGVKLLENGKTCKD

[2] = target: T2, human LRP6 E1E2 with a C-terminal 10× His tag, labeled with the dye NT-647 (human, UniProt O75581 21-630, dye NT-647 (Monolith NT Protein Labeling kit)); test: MST; LRP6 E1E2 or E1 labeled with NT-647 at ~5 nM, unlabeled SOST proteins or peptides titrated; 20 mM Tris-Cl pH 7.0, 200 mM NaCl, 0.5 mg/ml BSA, 0.05% Tween 20; 22 °C; Monolith NT.115 Pico
T2 construct: Low-density lipoprotein receptor-related protein 6 (LRP6), human, ectodomains E1 and E2; the limits P21-P630 are printed for the co-expression construct; the MST construct was cloned into another vector (pAcGP67A); also called Labeled LRP6 E1E2; source: High Five insect cells (pAcGP67A), purified (Ni-NTA, HiTrapQ, SEC), no tag cleavage; not shown: His10, C-terminal, kept
T2 sequence (looked up): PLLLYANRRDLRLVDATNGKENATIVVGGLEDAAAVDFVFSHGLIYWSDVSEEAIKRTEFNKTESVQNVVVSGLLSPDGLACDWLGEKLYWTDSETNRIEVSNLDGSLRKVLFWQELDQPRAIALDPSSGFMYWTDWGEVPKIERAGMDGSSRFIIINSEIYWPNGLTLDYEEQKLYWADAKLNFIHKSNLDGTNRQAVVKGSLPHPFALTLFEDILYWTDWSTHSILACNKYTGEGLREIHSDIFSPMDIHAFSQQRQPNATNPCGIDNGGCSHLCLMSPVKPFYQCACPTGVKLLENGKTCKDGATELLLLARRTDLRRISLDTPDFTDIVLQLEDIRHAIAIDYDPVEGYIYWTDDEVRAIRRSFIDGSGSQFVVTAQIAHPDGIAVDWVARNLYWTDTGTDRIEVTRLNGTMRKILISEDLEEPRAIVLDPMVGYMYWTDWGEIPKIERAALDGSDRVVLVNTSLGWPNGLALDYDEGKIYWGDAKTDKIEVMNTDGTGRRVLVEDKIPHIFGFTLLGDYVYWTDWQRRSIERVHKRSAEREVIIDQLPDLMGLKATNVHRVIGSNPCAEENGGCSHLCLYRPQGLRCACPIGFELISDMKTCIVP

[3] = target: T3, human LRP6 E1 with a C-terminal 10× His tag, labeled with the dye NT-647 (human, dye NT-647 (Monolith NT Protein Labeling kit)); test: as above
T3 chain: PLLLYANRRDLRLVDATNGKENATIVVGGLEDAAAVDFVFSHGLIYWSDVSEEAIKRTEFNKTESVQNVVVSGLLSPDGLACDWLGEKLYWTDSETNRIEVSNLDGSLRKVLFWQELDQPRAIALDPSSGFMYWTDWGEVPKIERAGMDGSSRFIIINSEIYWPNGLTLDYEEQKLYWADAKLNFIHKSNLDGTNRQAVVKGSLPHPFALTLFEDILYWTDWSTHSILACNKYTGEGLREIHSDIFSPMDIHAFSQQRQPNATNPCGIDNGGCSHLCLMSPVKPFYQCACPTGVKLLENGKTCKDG

[4] = target: T4, human LRP6 E1E2 (P21-P630) with a C-terminal 10x His tag (human, UniProt O75581 21-630, labeled with the dye NT-647 in the MST experiments (legends: Cy-5 dye-labeled)); test: MST; labeled LRP6 E1E2 or LRP6 E1 (~5 nM) titrated with unlabeled Smo-SOST, MBP-SOST, tags or peptides; 20 mM Tris-Cl pH 7.0, 200 mM NaCl, 0.5 mg/ml BSA, 0.05% Tween 20; 22 °C; three independent experiments
T4 construct: low-density lipoprotein receptor-related protein 6 (LRP6), human, ectodomains E1 and E2, residues P21-P630; also called LPR6 E1E2; source: High Five insect cells, secreted, purified (Ni-NTA, HiTrapQ, SEC); for the crystal co-expressed with SOSTtr177
T4 sequence (looked up): T2 sequence (looked up)

LRP6 E1E2 H404K = target: T5, LRP6 E1E2 H404K (human, UniProt O75581 21-630, H404K); test: cross-linking; purified LRP6 E1E2 H404K–SOST_(tr177) N175K complex with BS3 at room temperature for 30 min; ~90 kDa band cut out, chymotrypsin, LC-MS/MS
T5 construct: Low-density lipoprotein receptor-related protein 6 (LRP6), human, ectodomains E1 and E2 (parent construct P21-P630) with H404K; Mutation introduced into the LRP6 E1E2 of the crystallised complex; also called LRP6 E1E2 with the H404K mutation; source: purified as a complex with SOST_(tr177) N175K
T5 sequence (looked up): T2 sequence (looked up) with H384K

[5] = target: T6, human LRP6 E1E2 (P21–P630) with a C-terminal 10× His tag (human, UniProt O75581 21-630); test: SEC-MALS; purified complex at 1 mg/ml on Superdex 200 increase 5/150 GL; 50 mM Tris pH 8.5, 150 mM NaCl; protein conjugate method
T6 construct: Low-density lipoprotein receptor-related protein 6 (LRP6), human, ectodomains E1 and E2, residues P21-P630; Unlabelled form: crystal, SEC-MALS and fluorescence-SEC; An anti-His-tag antibody was used for the western blots of the fluorescence-SEC experiment; also called LRP6 ectodomains 1 and 2; source: High Five insect cells (baculovirus), secreted, purified (Ni-NTA, HiTrapQ, SEC); co-expressed …
T6 sequence (looked up): T2 sequence (looked up)

B1: human SOSTtr169 (Q24-R169) with an N-terminal His6-SUMO tag (domain or fragment)
chain: QGWQAFKNDATEIIPELGEYPEPPPELENNKTMNRAENGGRPPHHPFETKDVSEYSCRELHFTRYVTDGPCRSAKPVTELVCSGQCGPARLLPNAIGRGKWWRPSGPDFRCIPDRYRAQRVQLLCPGGEAPRARKVRLVASCKCKR
notes: sclerostin (SOST), human, residues Q24-R169; also called Smo-SOSTtr169; source: High Five insect cells, secreted, purified; tag not cleaved; not shown: His6, N-terminal, kept; SUMO, N-terminal, kept
Kd [1]: 870 nM

B2: SOST_(tr169) with an N-terminal His6-SUMO tag (domain or fragment, human, UniProt Q9BQB4 24-169, looked up)
chain: B1 chain
notes: has neither the HNQS region nor the basic-residue cluster; also called Smo-SOST mutant tr169; source: High Five insect cells (pAcGP67A), purified (Ni-NTA, HiTrapQ, SEC), no tag cleavage; not shown: His6, N-terminal, kept; SUMO, N-terminal, kept
Kd [2]: 900 nM

B3: disulfide-bonded, circularized SOST loop 2 peptide (CLLPNAIGRGKWGC) (peptide)
peptide: CLLPNAIGRGKWGC
modifications: disulfide 1-14 (inferred)
notes: first cysteine of the printed peptide, for the ring-closing disulfide; last two residues of the printed peptide, with the second cysteine of the disulfide; source: synthetic peptide (Peptron)
Kd [3]: 5200 nM | Kd [2]: 5500 nM

B4: human SOSTtr187 (Q24-A187) with an N-terminal His6-SUMO tag (domain or fragment)
chain: QGWQAFKNDATEIIPELGEYPEPPPELENNKTMNRAENGGRPPHHPFETKDVSEYSCRELHFTRYVTDGPCRSAKPVTELVCSGQCGPARLLPNAIGRGKWWRPSGPDFRCIPDRYRAQRVQLLCPGGEAPRARKVRLVASCKCKRLTRFHNQSELKDFGTEAA
notes: sclerostin (SOST), human, residues Q24-A187; also called Smo-SOSTtr187; source: High Five insect cells, secreted, purified; tag not cleaved; not shown: His6, N-terminal, kept; SUMO, N-terminal, kept
Kd [4]: 600 nM

B5: human WT SOST (Q24-Y213) with an N-terminal His6-SUMO tag (natural protein)
chain: QGWQAFKNDATEIIPELGEYPEPPPELENNKTMNRAENGGRPPHHPFETKDVSEYSCRELHFTRYVTDGPCRSAKPVTELVCSGQCGPARLLPNAIGRGKWWRPSGPDFRCIPDRYRAQRVQLLCPGGEAPRARKVRLVASCKCKRLTRFHNQSELKDFGTEAARPQKGRKPRPRARSAKANQAELENAY
notes: sclerostin (SOST), human, residues Q24-Y213; also called Smo-SOST; Smo-SOST WT; source: High Five insect cells, secreted, purified; tag not cleaved; not shown: His6, N-terminal, kept; SUMO, N-terminal, kept
Kd [1]: 780 nM

B6: human WT SOST (Q24-Y213) with an N-terminal His6-MBP tag (natural protein)
chain: B5 chain
notes: sclerostin (SOST), human, residues Q24-Y213; also called MBP-SOST; MBP-SOST WT; source: High Five insect cells, secreted, purified; tag not cleaved; not shown: His6, N-terminal, kept; MBP, N-terminal, kept
Kd [4]: 170 nM

B7: human SOSTtr177 (Q24-S177) with an N-terminal His6-SUMO tag (domain or fragment)
chain: QGWQAFKNDATEIIPELGEYPEPPPELENNKTMNRAENGGRPPHHPFETKDVSEYSCRELHFTRYVTDGPCRSAKPVTELVCSGQCGPARLLPNAIGRGKWWRPSGPDFRCIPDRYRAQRVQLLCPGGEAPRARKVRLVASCKCKRLTRFHNQS
notes: sclerostin (SOST), human, residues Q24-S177; also called Smo-SOSTtr177; source: High Five insect cells, secreted, purified; tag not cleaved; not shown: His6, N-terminal, kept; SUMO, N-terminal, kept
Kd [4]: 680 nM

B8: SOST_(tr177) N175K (domain or fragment, human, UniProt Q9BQB4 24-177, looked up)
chain: B7 chain with N152K
notes: Sclerostin (SOST), human, residues Q24-S177 (parent SOST_(tr177)) with N175K; also called SOSTtr177 with the N175K mutation; source: purified as a complex with LRP6 E1E2 H404K
binding result (LRP6 E1E2 H404K): binds

B9: human SOST_(tr177) (Q24-S177) (domain or fragment, UniProt Q9BQB4 24-177, looked up)
chain: B7 chain
notes: Sclerostin (SOST), human, residues Q24-S177; N175 not glycosylated in this construct; also called crystallization construct; not shown: His6, N-terminal, cleaved; MBP, N-terminal, cleaved
stoichiometry N [5]: 1

B10: human SOSTtr204 (Q24-A204) with an N-terminal His6-SUMO tag (domain or fragment)
chain: QGWQAFKNDATEIIPELGEYPEPPPELENNKTMNRAENGGRPPHHPFETKDVSEYSCRELHFTRYVTDGPCRSAKPVTELVCSGQCGPARLLPNAIGRGKWWRPSGPDFRCIPDRYRAQRVQLLCPGGEAPRARKVRLVASCKCKRLTRFHNQSELKDFGTEAARPQKGRKPRPRARSAKA
notes: sclerostin (SOST), human, residues Q24-A204; also called Smo-SOSTtr204; source: High Five insect cells, secreted, purified; tag not cleaved; not shown: His6, N-terminal, kept; SUMO, N-terminal, kept
Kd [4]: 290 nM

B11: SOST∆loop2 with an N-terminal His6-SUMO tag (natural protein)
chain: QGWQAFKNDATEIIPELGEYPEPPPELENNKTMNRAENGGRPPHHPFETKDVSEYSCRELHFTRYVTDGPCRSAKPVTELVCSGQCGPAGSGGSGPDFRCIPDRYRAQRVQLLCPGGEAPRARKVRLVASCKCKRLTRFHNQSELKDFGTEAARPQKGRKPRPRARSAKANQAELENAY
Kd [2]: 1000 nM

B12: human SOST C-terminal tail peptide (residues 170–213) (peptide)
chain: not shown
Kd [2]: 5800 nM

B13: human SOSTtr178 (Q24-E178) with an N-terminal His6-SUMO tag (domain or fragment)
chain: QGWQAFKNDATEIIPELGEYPEPPPELENNKTMNRAENGGRPPHHPFETKDVSEYSCRELHFTRYVTDGPCRSAKPVTELVCSGQCGPARLLPNAIGRGKWWRPSGPDFRCIPDRYRAQRVQLLCPGGEAPRARKVRLVASCKCKRLTRFHNQSE
notes: sclerostin (SOST), human, residues Q24-E178; also called Smo-SOSTtr178; source: High Five insect cells, secreted, purified; tag not cleaved; not shown: His6, N-terminal, kept; SUMO, N-terminal, kept
Kd [4]: 680 nM
